One may read the Kd as the equilibrium constant for the complex coming apart.

In article PMC12439145, “Aptamer-based drug delivery for targeted therapy of imatinib-resistant gastrointestinal stromal tumor” one finds Kd data, which are given here for two molecules.

For data set [1], the target named is T1, KIT (recombinant, YEASEN 93764ES80) (UniProt P10721 26-524). As to the kind of experiment: SPR; KIT immobilized on CM5 chip; SPR at 25 C, His-KIT on CM5 chip, 50 mM NaOH regeneration; flow cytometry with 250 nM Cy5-aptamer in binding buffer with 1 mg/ml BSA and 1 mM yeast tRNA; salt and pH not given in material. Conditions: protein: commercial; tags: His-tag; label: Cy5 in flow cytometry; predicted stem-loop.

Data set [2] deals with T1, KIT (recombinant, YEASEN 93764ES80). As to the kind of experiment: flow cytometry; KIT coated on aldehyde/sulfate latex beads; SPR at 25 C, His-KIT on CM5 chip, 50 mM NaOH regeneration; flow cytometry with 250 nM Cy5-aptamer in binding buffer with 1 mg/ml BSA and 1 mM yeast tRNA; salt and pH not given in material. Conditions: protein: commercial; tags: His-tag; label: Cy5 in flow cytometry; predicted stem-loop.

T1 sequence (P10721 26-524): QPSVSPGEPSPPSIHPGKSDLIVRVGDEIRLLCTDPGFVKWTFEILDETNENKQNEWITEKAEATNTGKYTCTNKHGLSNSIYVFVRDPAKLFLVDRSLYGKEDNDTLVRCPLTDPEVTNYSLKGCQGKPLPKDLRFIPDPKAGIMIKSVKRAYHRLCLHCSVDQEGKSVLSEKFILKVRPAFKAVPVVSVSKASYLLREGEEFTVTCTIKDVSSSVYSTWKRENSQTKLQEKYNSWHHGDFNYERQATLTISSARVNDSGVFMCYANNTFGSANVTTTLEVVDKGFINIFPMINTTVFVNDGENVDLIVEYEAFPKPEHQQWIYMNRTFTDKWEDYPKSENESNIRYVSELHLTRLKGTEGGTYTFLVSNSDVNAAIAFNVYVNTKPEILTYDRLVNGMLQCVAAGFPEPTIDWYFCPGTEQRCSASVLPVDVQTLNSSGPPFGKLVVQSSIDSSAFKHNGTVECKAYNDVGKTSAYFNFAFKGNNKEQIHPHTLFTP

B1: KIT-w (ssDNA)
DNA: GAGGCATACCAGCTTATTCAAGGGGCCGGGGCAAGGGGGGGGTACCGTGGTAGGACATAGTAAGTGCAATCTGCGAA
With B1, the Kd in data set [1] was 84 nM; in data set [2] it was 106 nM.
The like results for ATTCAAGGGGCCGGGGCAAGGGGGGGGTACCGTGGTAGGACATAGT (ssDNA) [KIT-d] were, in that order, 71.1 nM and 80.2 nM.
